“And” between values parts separate entries of the source, which are not always exact repeats. Equal values may be shown once.
Key:
S. aureus isolates [1] = assay: In vivo efficacy of vancomycin in combination with pp296, neutropenic murine thigh infection model; conditions: 24 h
Description: Study animals: Specific pathogen-free female ICR mice (average body weight 23 grams) were provided food and water ad libitum and maintained and used in accordance with National Research Council recommendations. Animals were allowed a 48-hour post-delivery acclimation period before every experiment. Mice were rendered transiently neutropenic by injection of cyclophosphamide via intraperitoneal (IP) route at a dose of 150 mg/kg of body weight at four days before bacterial inoculation and 100 mg/kg of body weight at one day before bacterial inoculation.
Neutropenic Thigh Infection Model: Two transfers of the bacterial isolates were performed onto trypticase soy agar plates with 5% sheep blood and placed into an incubator at 37° C. for approximately 24 hours. After an 18-24 hour incubation of the second transfer, a suspension of approximately 10^7 CFU/mL was made for inoculation. Final bacterial inoculum concentrations were confirmed by serial dilution and plating techniques. Thigh infection with the test isolate was produced by intramuscular injection of 0.1 mL of the bacterial inoculum into each thigh of the mice. Antimicrobial therapy was initiated 2 hours after bacterial inoculation, as detailed below. […]
Untreated control mice (n=3) were sacrificed just prior to antibiotic administration and 24 hours after bacterial inoculation. Animals sacrificed prior to antibiotic initiation served as 0-hour control animals, representing initial bacterial burden. […] Treatment mice (n=3/group) were sacrificed at the end of the 24 hour treatment period. After sacrifice, both thighs for each mouse were homogenized in normal saline. Serial dilutions were plated on Trypticase soy agar with 5% sheep blood and incubated for 18 to 20 hours at 37.0 to determine the CFU. Efficacy was calculated as the change in bacterial density obtained in treated mice after 24 hours compared with the numbers in the 0-hour control animals. Bacterial density represents the average CFU determined from 3 mice, each contributing 2 thighs.

S. aureus isolates [2] = assay: MIC determination (broth microdilution) against 8 S. aureus isolates; type: cell-based; parameters: MIC pp296 (AST media): unit not given beside the values; conditions: for MIC pp296 (mouse serum): 100% ICR mouse serum; for MIC pp296 (human serum): 100% human serum; for MIC pp296 (AST media): caMHB-HSD
Description: Suitable methods for assessing the activity of a modified lysin polypeptide as disclosed herein are well known in the art and described in the examples. […] For example, MIC values for a modified lysin polypeptide may be determined against e.g., laboratory Staphylococcus aureus strains, in e.g., Mueller-Hinton broth or Mueller-Hinton broth supplemented with serum, such as horse serum.
The pp296 MICs were determined based on (1) cation-adjusted Mueller-Hinton Broth with 25% horse serum and 0.5 mM DTT (caMHB-HSD); (2) human serum (100% serum); and (3) ICR mice (100% serum). Vancomycin and daptomycin MICs of the isolate strains were determined in accordance with the broth microdilution method as outlined by CLSI. Results of the MIC determination are shown below in Table 2. The bacterial isolates were frozen at −80° C. in skim milk.

S. aureus = assay: pp296 dose fractionation study, neutropenic murine thigh infection model; type: in vivo
Description: Each of the pp296 TDDs was fractionated into three regimens, i.e., one-third of the entire dose was administered via IV three times (q8h); one-half of the entire does was administered via IV two times (q12h), or the entire dose was administered via IV once daily over a 24-hour period, for a total of three groups per each TDD.
Untreated control mice (n=3/group) were sacrificed just prior to antibiotic administration, as well as 24 hours later. Animals sacrificed prior to antibiotic administration served as 0-hour control animals, representing initial bacterial burden. The 24-hour control animals received sterile normal saline in the same volume and schedule as the most frequent active drug regimen. […] After the 24-hour treatment period, all animals were euthanized and thighs were cultured quantitatively as described above. The change in bacterial density was calculated for each of the dosing regimen. Comparisons were made between the different regimens of the same total daily dose on bacterial burdens at 24 hours using one-way Analysis of Variance (ANOVA) test followed by Tukey's test where the P value was 0.05.

B1: pp296: modified PlySs2 lysin, SEQ ID NO: 6: L92W, V104S, V128T, Y137S, Y164K, N184D, S198Q (protein)
chain: MTTVNEALNNVRAQVGSGVSVGNGECYALASWYERMISPDATVGLGAGVGWVSGAIGDTISAKNIGSSYNWQANGWTVSTSGPFKAGQIVTWGATPGNPYGHVSIVEAVDGDRLTILEQNYGGKRYPTRNYYSAASSRQQVVHYITPPGTVAQSAPNLAGSRSKRETGTMTVTVDALNVRRAPDTSGEIVAVYKRGEQFDYDTAIIDVNGYAWVSYIGGSGKRNYVATGATKDGKRFGNAWGTFK
S. aureus isolates [1]; ATCC2921, pp296 50 mg/kg alone, 50 mg/kg
  Replicate Log10 CFU/thigh data: 8.15 Log10 CFU/thigh (2×) and 8.58 Log10 CFU/thigh and 7.86 Log10 CFU/thigh and 6.81 Log10 CFU/thigh and 8.00 Log10 CFU/thigh
S. aureus isolates [1]; CAIRD426, pp296 50 mg/kg alone (VAN 1.5 mg/kg study)
  Replicate Log10 CFU/thigh data: 5.41 Log10 CFU/thigh and 5.80 Log10 CFU/thigh and 7.92 Log10 CFU/thigh and 8.33 Log10 CFU/thigh and 4.90 Log10 CFU/thigh and 6.18 Log10 CFU/thigh
S. aureus isolates [1]; CAIRD426, pp296 50 mg/kg alone, Run #1, 50 mg/kg
  Replicate Log10 CFU/thigh data: 6.04 Log10 CFU/thigh and 4.62 Log10 CFU/thigh and 5.46 Log10 CFU/thigh and 4.94 Log10 CFU/thigh and 6.53 Log10 CFU/thigh and 6.00 Log10 CFU/thigh
S. aureus isolates [1]; CAIRD426, pp296 50 mg/kg alone, Run #2, 50 mg/kg
  Replicate Log10 CFU/thigh data: 8.14 Log10 CFU/thigh and 7.97 Log10 CFU/thigh and 4.83 Log10 CFU/thigh and 4.79 Log10 CFU/thigh and 5.84 Log10 CFU/thigh and 6.07 Log10 CFU/thigh
S. aureus isolates [1]; HPV107, pp296 50 mg/kg alone (VAN 1.5 mg/kg study)
  Replicate Log10 CFU/thigh data: 8.08 Log10 CFU/thigh and 8.00 Log10 CFU/thigh and 7.05 Log10 CFU/thigh and 7.21 Log10 CFU/thigh and 4.64 Log10 CFU/thigh and 6.57 Log10 CFU/thigh
S. aureus isolates [1]; HPV107, pp296 50 mg/kg alone, Run #1, 50 mg/kg
  Replicate Log10 CFU/thigh data: 5.08 Log10 CFU/thigh and 4.96 Log10 CFU/thigh and 5.36 Log10 CFU/thigh and 6.45 Log10 CFU/thigh and 6.14 Log10 CFU/thigh and 6.78 Log10 CFU/thigh
S. aureus isolates [1]; HPV107, pp296 50 mg/kg alone, Run #2, 50 mg/kg
  Replicate Log10 CFU/thigh data: 7.35 Log10 CFU/thigh and 8.03 Log10 CFU/thigh (2×) and 6.53 Log10 CFU/thigh and 7.04 Log10 CFU/thigh and 6.30 Log10 CFU/thigh
S. aureus isolates [1]; JMI227, pp296 50 mg/kg alone, 50 mg/kg
  Replicate Log10 CFU/thigh data: 5.01 Log10 CFU/thigh and 6.67 Log10 CFU/thigh and 7.71 Log10 CFU/thigh and 8.05 Log10 CFU/thigh and 4.72 Log10 CFU/thigh and 7.34 Log10 CFU/thigh
S. aureus isolates [1]; JMI4789, pp296 50 mg/kg alone, 50 mg/kg
  Replicate Log10 CFU/thigh data: 5.02 Log10 CFU/thigh and 5.19 Log10 CFU/thigh and 7.69 Log10 CFU/thigh and 8.08 Log10 CFU/thigh and 5.11 Log10 CFU/thigh and 6.15 Log10 CFU/thigh
S. aureus isolates [1]; NRS100, pp296 50 mg/kg alone (VAN 1.5 mg/kg study)
  Replicate Log10 CFU/thigh data: 4.79 Log10 CFU/thigh and 5.29 Log10 CFU/thigh and 4.72 Log10 CFU/thigh and 4.90 Log10 CFU/thigh (2×) and 5.73 Log10 CFU/thigh
S. aureus isolates [1]; NRS100, pp296 50 mg/kg alone, Run #1, 50 mg/kg
  Replicate Log10 CFU/thigh data: 4.75 Log10 CFU/thigh and 4.81 Log10 CFU/thigh and 4.78 Log10 CFU/thigh and 4.83 Log10 CFU/thigh and 4.48 Log10 CFU/thigh and 4.70 Log10 CFU/thigh
S. aureus isolates [1]; NRS100, pp296 50 mg/kg alone, Run #2, 50 mg/kg
  Replicate Log10 CFU/thigh data: 4.62 Log10 CFU/thigh and 4.73 Log10 CFU/thigh and 4.66 Log10 CFU/thigh and 4.41 Log10 CFU/thigh and 5.94 Log10 CFU/thigh and 6.34 Log10 CFU/thigh
S. aureus isolates [1]; NRS123, pp296 50 mg/kg alone, 50 mg/kg
  Replicate Log10 CFU/thigh data: 6.53 Log10 CFU/thigh and 8.01 Log10 CFU/thigh and 8.08 Log10 CFU/thigh and 7.48 Log10 CFU/thigh and 8.41 Log10 CFU/thigh and 8.38 Log10 CFU/thigh
S. aureus isolates [1]; NRS217, pp296 50 mg/kg alone (VAN 1.5 mg/kg study)
  Replicate Log10 CFU/thigh data: 7.46 Log10 CFU/thigh and 7.45 Log10 CFU/thigh and 4.60 Log10 CFU/thigh and 4.79 Log10 CFU/thigh and 7.49 Log10 CFU/thigh and 6.72 Log10 CFU/thigh
S. aureus isolates [1]; NRS217, pp296 50 mg/kg alone, Run #1, 50 mg/kg
  Replicate Log10 CFU/thigh data: 4.75 Log10 CFU/thigh and 6.79 Log10 CFU/thigh and 5.06 Log10 CFU/thigh and 4.93 Log10 CFU/thigh and 5.72 Log10 CFU/thigh and 5.76 Log10 CFU/thigh
S. aureus isolates [1]; NRS217, pp296 50 mg/kg alone, Run #2, 50 mg/kg
  Replicate Log10 CFU/thigh data: 5.35 Log10 CFU/thigh and 5.98 Log10 CFU/thigh and 6.08 Log10 CFU/thigh and 5.42 Log10 CFU/thigh and 4.32 Log10 CFU/thigh and 6.26 Log10 CFU/thigh
S. aureus isolates [1]; isolate CAIRD426, pp296 50 mg/kg alone, VAN 5 mg/kg study
  Replicate Log10 CFU/thigh data: 8.95 Log10 CFU/thigh and 7.96 Log10 CFU/thigh and 7.74 Log10 CFU/thigh and 8.34 Log10 CFU/thigh
S. aureus isolates [1]; pp296 0.5 mg/kg IV + vancomycin 1.5 mg/kg SC, 4 isolates
  mean bacterial density vs starting inoculum: 0.92±1.24 log10 CFU/thigh
S. aureus isolates [1]; pp296 0.5 mg/kg IV + vancomycin 3 mg/kg q12h SC, 8 isolates
  mean bacterial reduction vs starting inoculum: −0.26±1.10 log10 CFU/thigh
S. aureus isolates [1]; pp296 0.5 mg/kg IV + vancomycin 5 mg/kg SC, 4 isolates
  mean bacterial reduction vs starting inoculum: −0.59±0.79 log10 CFU/thigh
S. aureus isolates [1]; pp296 50 mg/kg IV + vancomycin 1.5 mg/kg SC, 4 isolates
  mean bacterial density vs starting inoculum: −0.61±0.82 log10 CFU/thigh
S. aureus isolates [1]; pp296 50 mg/kg IV + vancomycin 3 mg/kg q12h SC, 8 isolates
  mean bacterial reduction vs starting inoculum: −1.01±0.41 log10 CFU/thigh
S. aureus isolates [1]; pp296 50 mg/kg IV + vancomycin 5 mg/kg SC, 4 isolates
  mean bacterial reduction vs starting inoculum: −0.85±0.54 log10 CFU/thigh
S. aureus isolates [1]; pp296 50 mg/kg alone, 4 isolates (VAN 1.5 mg/kg study)
  average growth vs starting inoculum: 0.75±1.24 log10 CFU/thigh
S. aureus isolates [1]; pp296 50 mg/kg alone, 4 isolates (VAN 5 mg/kg study)
  average growth vs starting inoculum: 1.44±1.43 log10 CFU/thigh
S. aureus isolates [1]; pp296 50 mg/kg q24h IV alone, 8 isolates (VAN 3 mg/kg study)
  average growth vs starting inoculum: 0.37±1.27 log10 CFU/thigh
S. aureus isolates [2]; ATCC 29213 MSSA
  MIC pp296 (mouse serum): 256
  MIC pp296 (human serum): 1
  MIC pp296 (AST media): 1
S. aureus isolates [2]; CAIRD426 MRSA
  MIC pp296 (mouse serum): 32
  MIC pp296 (human serum): 1
  MIC pp296 (AST media): 1
S. aureus isolates [2]; HPV107 MRSA
  MIC pp296 (mouse serum): 128
  MIC pp296 (human serum): 1
  MIC pp296 (AST media): 1
S. aureus isolates [2]; JMI227 MRSA
  MIC pp296 (mouse serum): 64
  MIC pp296 (human serum): 1
  MIC pp296 (AST media): 0.5
S. aureus isolates [2]; JMI4789 MRSA
  MIC pp296 (mouse serum): 256
  MIC pp296 (human serum): 1
  MIC pp296 (AST media): 1
S. aureus isolates [2]; NRS100 (COL) MRSA
  MIC pp296 (mouse serum): 32
  MIC pp296 (human serum): 1
  MIC pp296 (AST media): 1
S. aureus isolates [2]; NRS123 (MW2) MRSA
  MIC pp296 (mouse serum): 256
  MIC pp296 (human serum): 1
  MIC pp296 (AST media): 1
S. aureus isolates [2]; NRS271 MRSA/LRSA
  MIC pp296 (mouse serum): 64
  MIC pp296 (human serum): 0.5
  MIC pp296 (AST media): 1
S. aureus; pp296 5 or 50 mg/kg/day IV with vancomycin or daptomycin
  efficacy of dose-fractionation (q12h v. q8h) compared with q24h: does not appear to provide enhanced efficacy
S. aureus; pp296 with vancomycin or daptomycin
  driver of efficacy (PK/PD index): AUC related
